Laboratory results reported in patent publication US20180371492A1 (WAYNE STATE UNIVERSITY, published 2018).

Target: T1, purified androgen receptor (AR) (human, UniProt P10275 1-920, limits assumed)
T1 construct: also called purified AR
T1 sequence: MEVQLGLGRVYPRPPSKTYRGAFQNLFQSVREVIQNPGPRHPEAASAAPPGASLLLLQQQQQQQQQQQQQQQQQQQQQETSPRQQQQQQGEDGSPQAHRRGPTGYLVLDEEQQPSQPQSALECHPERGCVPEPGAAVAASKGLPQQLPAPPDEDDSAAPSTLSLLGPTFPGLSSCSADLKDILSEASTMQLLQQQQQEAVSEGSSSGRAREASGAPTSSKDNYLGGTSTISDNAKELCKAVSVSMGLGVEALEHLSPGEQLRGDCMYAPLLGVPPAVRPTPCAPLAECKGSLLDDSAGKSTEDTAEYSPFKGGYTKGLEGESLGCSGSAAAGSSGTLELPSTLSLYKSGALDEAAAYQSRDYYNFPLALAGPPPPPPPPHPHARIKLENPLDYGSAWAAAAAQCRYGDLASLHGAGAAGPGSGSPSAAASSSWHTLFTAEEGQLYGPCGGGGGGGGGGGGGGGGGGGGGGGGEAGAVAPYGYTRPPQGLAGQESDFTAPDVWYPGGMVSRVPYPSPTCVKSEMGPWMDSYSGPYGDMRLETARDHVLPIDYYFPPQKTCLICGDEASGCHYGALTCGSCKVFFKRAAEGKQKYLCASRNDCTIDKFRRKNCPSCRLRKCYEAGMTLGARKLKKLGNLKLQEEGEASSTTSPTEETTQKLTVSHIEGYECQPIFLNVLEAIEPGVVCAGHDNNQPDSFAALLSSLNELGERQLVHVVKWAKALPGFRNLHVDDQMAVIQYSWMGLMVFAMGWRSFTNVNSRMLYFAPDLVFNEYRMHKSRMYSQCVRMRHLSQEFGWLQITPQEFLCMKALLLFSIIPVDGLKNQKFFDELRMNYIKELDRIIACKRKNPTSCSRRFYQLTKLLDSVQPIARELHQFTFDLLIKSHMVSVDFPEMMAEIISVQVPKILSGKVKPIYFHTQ
Experiment: SPR, purified proteins

B1: ELK1 (ETS transcription factor (ELK1), transcript variant 1) (other)
chain: MDPSVTLWQFLLQLLREQGNGHIISWTSRDGGEFKLVDAEEVARLWGLRKNKTNMNYDKLSRALRYYYDKNIIRKVSGQKFVYKFVSYPEVAGCSTEDCPPQPEVSVTSTMPNVAPAAIHAAPGDTVSGKPGTPKGAGMAGPGGLARSSRNEYMRSGLYSTFTIQSLQPQPPPHPRPAVVLPNAAPAGAAAPPSGSRSTSPSPLEACLEAEEAGLPLQVILTPPEAPNLKSEELNVEPGLGRALPPEVKVEGPKEELEVAGERGFVPETTKAEPEVPPQEGVPARLPAVVMDTAGQAGGHAASSPEISQPQKGRKPRDLELPLSPSLLGGPGPERTPGSGSGSGLQAPGPALTPSLLPTHTLTPVLLTPSSLPPSIHFWSTLSPIAPRSPAKLSFQFPSSGSAQVHIPSISVDGLSTPVVLSPGPQKP
notes: also called purified ELK1; ELK1 polypeptide
  Kd: 19 nM
